Experimental data reported in the DeepSol protein solubility set.

Experiment: soluble on expression in E. coli; label from the status in PepcDB or PDB records

Sequence	soluble on expression in E. coli
MLKDEYGRVVTNLRIAVTKKCNLRCFYCHKEGESNPGEEISAERIVEIARAFKELGVRKLKITGGEPLLRKDLPDIILNLPEFEEISMTTNGILLEKYAEELRECGLSRVNVSLDTLDAEKYRWITGGGEVQKVVNGIEKACEVGLTPVKINMLVLGGVNDNEVDELLEFTNSFNRGNTKAILQVIELVPFPGFEKYFFDISTIEEKYARMATQRRVRAMHRRTQYFTPKGVIEFVKPMDNTAFCMHCNRMRVTSDGKLKPCLLRNETITIDGKHGEELARAIIETVRKREPYFKGLEHHHHHH	soluble
MLKIATFNVNSIRSRLHIVIPWLKENKPDILCMQETKVENRKFPEADFHRIGYHVVFSGSKGRNGVAIASLEEPEDVSFGLDSEPKDEDRLIRAKIAGIDVINTYVPQGFKIDSEKYQYKLQWLERLYHYLQKTVDFRSFAVWCGDMNVAPEPIDVHSPDKLKNHVCFHEDARRAYKKILELGFVDVLRKIHPNERIYTFYDYRVKGAIERGLGWRGDAILATPPLAERCVDCYADIKPRLAEKPSDHLPLVAVFDV	soluble
MLKIGIVGCGAIGNFITKKVLDGTIKNAKISAVYDRNFDKAKTLSERTGAKICSSIDDLVKEDLDLVVEAASIKAVEEIAEKSLINNKDVLIMSVGALADKKLFLKLRDLAKTVGRKIYLPSGAIGGLDAIKALRLGEIEEVVLKTTKPVAALEDALKNLGYKPEDIKNPVIVFEGDVFKAIKEFPANINVSVTLSIAAEFPAKVVIVADPNAKLNKHELFVKSSIGTLRVCIENVPFEENPRTSALAAYSAVRLIRDLAEPVKVGT	soluble
MLKIQAYFNETADLPCQFANSQNQSLSELVVFWQDQENLVLNEVYLGKEKFDSVHSKYMGRTSFDSDSWTLRLHNLQIKDKGLYQCIIHHKKPTGMIRIHQMNSELSVLA	soluble
MLKKHLTTQLFQKKKKKKLHLVLDLDHTLLHSVLVSDLSKREKYLLEETDSRQDLWRRNVDGYEFIIKLRPFLHEFLLEANKLFTMHVYTMGSSSYAKQVLKLIDPDKVYFGKRVITREASPFNKSLDLLAADKRRVVIVDDTVHVWPFHKRNLLQITKYVYFKVDGTKWDSYAEAKKDESQSNGSLANVLKFLEDVHKRFEEDLGFKDLRLLIPCRQCCY	soluble
MLKNTYIHIPGVGKALEQKIWASGIHTWDEFLEMEDRVLIPSVKKARICEGIKVSSSHLAAKDCFFFSQRLPSAEHWRAYSLFSDSVAFFDIETTGLSPCRDKITVVGIYNGNEVKTYVRGTNLEDLVEEFSRYRLLVSFNGARFDIPFIKSEFPEIEFKQLHIDLMYPLRRIGYGGGLKKIEKLLGICRSEDTDGMDGFDAVRLWKKYEKGDLEALNLLVKYNREDIVNLKTIIELTYPKMVENALKILEHHHHHH	not soluble
MLKYSNHMAFKDLREYIEFMKKKGKLIEVDDEVSVDLEIAEITRKATYAHLPPLLFKRVKNYENWKIVSNIFYSIESLYEIFGTNKLESISEGFLSNLSNMPITFFDKIKSLREILGLGKVMPKAKSPSFKEEKNLDLTKIPAIKTWPKDAGRYLTFSITITKDPETDVHNLSVYRVQILNEKEAIIHWQAFKRGALTAKKYLEKGISKIPIAVVTGVDPAIAFTAASPVPHGIDKYMFAGILRGEGIDVAELDNQLLVPSHSEVVLTGYVDLNDMRLEGPFGDHMGYYTPADYYPVFKLERVYIREDPIFHVTSVGKPPLEDAWIGKAVERIFLPFAKMLVPELIDMNLPEYGLFTGIGIFSIKKYYPGQAKRVMMALWGTGQLSLLKIIIVVDQDIDVHDINQVIYAIAANVDPKRDVWVIENALTDSLDPSVPFPPLGSKLGIDATRKFKEEMGKEWPEEVRSDEVVAKKADQILNKIIKRYQTSLEHHHHHH	not soluble
MLLAHISDTHFRSRGEKLYGFIDVNAANADVVSQLNALRERPDAVVVSGDIVNCGRPEEYQVARQILGSLNYPLYLIPGNHDDKALFLEYLQPLCPQLGSDANNMRCAVDDFATRLLFIDSSRAGTSKGWLTDETISWLEAQLFEGGDKPATIFMHHPPLPLGNAQMDPIACENGHRLLALVERFPSLTRIFCGHNHSLTMTQYRQALISTLPGTVHQVPYCHEDTDPYYDLSPASCLMHRQVGEQWVSYQHSLAHYAGPWLYDENISCPTEER	soluble
MLLKPEEYIERLGEYKRDIYVLGKKIEDFVNHPNIRPTVEAMAYTYSIAEKYAPHSELVGEKVNRLNYVNQTFEDLIARYDYQRELSLKLATCNYRCTGCDAINAIYPATKALDEREGTDYHRRFLELLKEIQKKDYACTAALTDVKGDRGKRPSEQKDKYLRVVEKREDGIVVRGAKICQSGAFAADVNFVLPTQTFRPGEEEFAVVFAAMPEDEGIKYILQNTGIQAKQREGGKFEAGNKYGDRTTCMVVFDDVFIPWERVFVFEDLKAARDVVSYFAPSHRCVGAACKAGFIDSMAGAASLMLKTSGLENVSALQQKVAEMVAVSEGAFAISVGAAVKGANHNGCWLPNFQMANSGKVIGVEGFAKALMNLIDISGGIIGTSPSEFDLEMVGDFLRASEKFTAEQRLKIVKFIEFWTTSSHLVGAFHGGGSPTAALITLRFLMDLSSREEAVKNCIDF	not soluble
MLLKSHHSGGRKTRFLTVLDVGSSKIVCLIACLRPLKHAHYLHGRTHSMEILGFGVQRSRGIKSGVVMDIFAAEQSIRLAVDAAEKMAGLVVDSVIVNFSSSRLQSALINGVVSLNGREVTKRDIRVAFADVSRKAFNAERHVVHSVPVSYVLDGDKGISDPVGMIGDFFGVDVHVVTAETAALRNLETCINRAHLSVEAMVVTPFASGLAVLMNDEAHLGAACIDFGGGTTTFSVFSEGKFVHANALAVGGHHVTLDVARGFSMSLPEAERLKVVYGSALVTSADERHMVNVTEIGNEHREIQYPRAVLGRIIRARVEEILEMVRDCLNRSGFGHIIGKRVILTGGASQLTGLPEMARTILGRNVRIGRPLGISRLPSLAKGAAFTSAVGLLIYPQLVGFEEKTMQVAVNHLSTGTRGYFQRVGQWLRESF	not soluble
MLLNEASDAIYWVNHKGLITYANPSAQILFGYEEVELKDKSISDLIVSKTDLFSTFSSNIIEEKGVVIQQEFVRKDNSTFYGEMSVRLFDDGSHQAIIRDITKGVIEQRLLLDRERKFKILVENAFDIIIVLSSDFKIKFISPAIKKMLGYEIDSVLGENSNKFIEFRDRVMIKEVLKNHGITYAINDLKLIHKNGQIIHCEVNAVNFLNDPLINGIIVNCHDISKRIQTENELINTNYELDSFVYKVSHDLKAPLRSMLGLINLSQKENTEDTVKLYLDMMVRSIHNMDIFIKDLTQFSRNSRMEVIKESIDFKELITKIENNLKYDDNARFISFERNISQQSLFYSDPNRVETIVSNLLSNAYKYHRFDSNNPYINVKIEVSETAACIVIKDNGSGIADEYHNKIFQMFFRASEKSQGSGLGLYIVKSAIDKLEGTITLHSIPDKESTFTVEIPNLLTR	not soluble
MLLQANRGLGLSAHIIDHCNLILKFPEGTNSTWYNAQFKVFEALEFKYNVCEAVLLWEQYRNMTTVLTREYLDVRPDGWLDYAAMRIAQLGADKCYNRTLCEEHLNVILPAKPPFHPRQFHKCAVVGNSGDLLKTEFGEEIDSHDAVFRDNEAPVNEKYAKYVGVKRDFRLVVRGAARNMIKILNGSDNEVLIIKSVTHRDFNEMIKRIPNPVYLFQGIVLRRGAKGTGMKSIELALSMCDIVDIYGFTVDPGYTEWTRYFSTPRKGHNPLQGRAYYQLLECLGVQITC	not soluble
MLLQVHRLLFEKFYPWAGRDRLELVPHLSVWKGPKGAPRRTFFESPAMIERAVDYALSLASKKQGFMQKPGEVMGLLCFAHPFLDGNGRSILLFYMELSYRAGFAIDWASTRKDDYLQALDDEIHNPGKGHL	soluble
MLLTCRFTAATSRLSACTRSFSIDFSHEKPAPHQLEHVTTRLTETVPLMFRRRMDYTFYRKDVVCDDQIFSVEKRGIEQLMSHFGMIGTLGQVFLPHVEMEMLSVAPVIDEGTVRCRWRVKYVSFTRIIMNPRLLRFDYRMQNLSWFDGYSVLTVDGNGEVYKVTLQKMQQDEQKSLLTSTTEKLKEKLAPSAANN	not soluble
MLLVMRAKQGKKTPKRKSQGVGNTQGQTPGSNDSDWVDQIGQSVSDGTQPDWSWNESAETASAAVSAQEVDPLTEYQVYKQFGYQGKAAESLAAYLDGIPDGEAKPENLIRELLDINLEVGDVDVLADNLQKYGKLILSELLAKYIEQALQRDSNHLRIRVLAEEGLGWGTQEIEKRAEGGSATAASASPPPDAGGKAYEAEEIKRIPIVRGKKDVSGISQEEIGAIAGLVRADQGAKILKDKVSYETASKQYDRAIQTSEKPANLIIDALKLDYQHADIDRFAGHLWKLYQTLGNYGRQVKERMLGWGYSLGYHEVFDDLEKGPNDRQIKDIGMGHGYLPKNIQKFKSQHRDLVLQDSSLINTGSSPADDAVKEVESLLMYGQIEAAMDVLEQAVLKYPDESQLYITLIDIYERTEDWDRLGQFLRVLRERADRLPEEVVMLMSRLLQRMNQNIKKIKRYGK	not soluble
MLLYMRFTENFERAKKEALMSLEIALRKGEVDEDIIPLLKKINSIENYFTTSSCSGRISVMEMPHFGDKVNAKWLGKWHREVSLYEVLEAIKKHRSGQLWFLVRSPILHVGAKTLEDAVKLVNLAVSCGFKYSNIKSISNKKLIVEIRSTERMDVLLGENGEIFVGEEYLNKIVEIANDQMRRFKEKLKRLESKINALNR	soluble
MLNKLMWLTGKAQEDWIEKILHLRQKIWPDYQRIKNDTLFKLYSHYPLYQWLSHYNGEVVAVINSLPVALDQSLDNLPQEGLNWVLSHLESTTPLTQSNYLAAVSVTVNPAYQRLGLSKLLLNRLKASAQEAQYKALIVPARPSQKENY	not soluble
MLNVEPSFAEELRSSGVSLSATYLGSVPVVESINVMVSEMRVQVVSECIQHVAATVGVTAAREINPVVSRVIGEVKKENFPVDINISSKMIKIIKQSRLIQRHPFSFFSFGAQGQKGTDTELMFGYIAKNKDGTDRRCHVVFIEDVHKLIDVLTTAINVNTFDAQANASTSNDGFTVPAPPMRHRSSLHRQSFVSNCRAPTVTEDVVGKVWYHGNLSREDAQALLKTEGDFLVRQSDHTPGKYVLSGRTAENEHKHLILLDNHNRVRTRDRTFSNISELIDYHVNNGMAVRSEGRDRETSLNLIRPVPCPGSDDIE	soluble
